B2: 14-3-3σ (natural protein)
chain: MERASLIQKAKLAEQAERYEDMAAFMKGAVEKGEELSCEERNLLSVAYKNVVGGQRAAWRVLSSIEQKSNEEGSEEKGPEVREYREKVETELQGVCDTVLGLLDSHLIKEAGDAESRVFYLKMKGDYYRYLAEVATGDDKKRIIDSARSAYQEAMDISKKEMPPTNPIRLGLALNFSVFHYEIANSPEEAISLAKTTFDEAMADLHTLSEDSYKDSTLIMQLLRDNLTLWTADNAGEEGGEAPQEPQS

Non-standard residues stand in square brackets, D forms with d. No end group written: not given here. pS = N[C@@H](COP(=O)(O)O)C(=O)O

In experiment [1] the target is B2. The experiment is described as follows: FP; 100 uM compound 23.
Experiment [2] deals with B2. The experiment is described as follows: FP; 100 uM compound 22.
The target in experiment [3] is B2. The experiment can be described thus: FP; 100 uM compound 37.
Experiment [4] has as its target B2. The experiment can be described thus: FP; 100 uM compound 32.
Experiment [5] deals with B2. The experiment is described as follows: FP; 100 uM compound 29.
Experiment [6] has as its target B2. The experiment can be described thus: FP; 100 uM compound 70.
For experiment [7], the target named is B2. The experiment is described as follows: FP; 100 uM compound 78.
Experiment [8] addresses B2. The experiment is described as follows: FP; 100 uM compound 79.
The target in experiment [9] is B2. The experiment can be described thus: FP; 100 uM compound 80.
Experiment [10] addresses B2. The experiment is described as follows: FP; 100 uM compound 83.
For experiment [11], the target named is B2. The experiment is described as follows: FP; 100 uM compound 86.
Experiment [12] deals with T1, B-RAF 365 (10mer) (Homo sapiens, not fully specified).
T1 chain: DRSS[pS]APNVH
The experiment is described as follows: FP; DMSO.

Experiment [13] addresses T1, B-RAF 365 (10mer). The experiment is described as follows: FP; 100 uM compound 37.
The target in experiment [14] is T1, B-RAF 365 (10mer). The experiment can be described thus: FP; 100 uM compound 29.
In experiment [15] the target is T1, B-RAF 365 (10mer). The experiment can be described thus: FP; 100 uM compound 86.
The target in experiment [16] is T1, B-RAF 365 (10mer). The experiment is described as follows: FP; 100 uM compound 23.
In experiment [17] the target is T1, B-RAF 365 (10mer). The experiment is described as follows: FP; 100 uM compound 32.
Experiment [18] deals with T2, 14-3-3σ covalently bound to molecular glue 23 (UniProt P31947 1-248, C38 covalently bound to compound 23 (chloroacetamide warhead)).
T2 chain: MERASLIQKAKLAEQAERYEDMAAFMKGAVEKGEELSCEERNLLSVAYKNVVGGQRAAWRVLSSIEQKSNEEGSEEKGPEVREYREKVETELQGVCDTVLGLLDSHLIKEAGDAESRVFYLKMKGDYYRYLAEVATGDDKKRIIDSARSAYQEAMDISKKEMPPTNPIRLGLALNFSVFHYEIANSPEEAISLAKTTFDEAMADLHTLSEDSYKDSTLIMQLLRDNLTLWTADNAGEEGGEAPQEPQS
The experiment can be described thus: SPR; 14-3-3σ covalently bound to molecular glue 23.

For experiment [19], the target named is B2. The experiment is described as follows: FP; DMSO.
The target of experiment [20] is T3, 14-3-3σ, tagged with a Twin-Strep tag (UniProt P31947 1-248).
T3 chain: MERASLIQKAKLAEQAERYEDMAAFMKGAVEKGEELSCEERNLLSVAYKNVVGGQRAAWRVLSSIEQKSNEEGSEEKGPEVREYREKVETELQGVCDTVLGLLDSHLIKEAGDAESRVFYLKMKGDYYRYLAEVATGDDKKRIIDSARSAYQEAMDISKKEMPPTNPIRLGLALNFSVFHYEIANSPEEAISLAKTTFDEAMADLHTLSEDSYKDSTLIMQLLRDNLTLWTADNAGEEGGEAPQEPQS
The experiment can be described thus: SPR.

The values below come from paper PMC12903857 (2026).

B1: 15-mer A-RAF peptide (peptide)
chain: LQRIRSTSTPNVHMV
modifications: also: phosphoserine at S214, site in chain not given here
As usually defined, the Kd is the equilibrium constant for the complex coming apart. With B1, the equilibrium dissociation constant (Kd) is 5 nM in experiment [1]; 9 nM in [2]; 25 nM in experiment [3]; 50 nM in experiment [4]; 30 nM in [5]; 110 nM in experiment [6]. Also, the Kd in experiment [7] stood at 120 nM; in [8], 115 nM; in experiment [9], 1100 nM; in experiment [10], 265 nM; in [11], 140 nM.
For the molecule B2, the Kd was 650 nM in [12]; 52 nM in experiment [13]; 140 nM in experiment [14]; 155 nM in experiment [15]; 105 nM in experiment [16]; 112 nM in [17].

B3: acetylated 12-mer B-RAF peptide (peptide)
chain: DRSSSAPNVHIN
modifications: not fully specified (residue 5, N-terminus); also: phosphoserine at 365, position in chain not mapped
With B3, binding in experiment [18] was put at a Kd of 6.3 nM.

B4: 15-mer C-RAF peptide (peptide)
peptide: SQRQRSTSTPNVHMV
modifications: also: phosphoserine at S259, site in chain not given here
Regarding B4, the Kd in experiment [3] came to 136 nM; in experiment [6], 100 nM; in experiment [8] it was 135 nM; in experiment [9] it was 332 nM; in experiment [10], 145 nM; in experiment [11], 140 nM.

B5: acetylated 12-mer C-RAF peptide (peptide)
chain: QRSTSTPNVHMV
modifications: not fully specified (residue 5, N-terminus); also: phosphoserine at 259, position in chain not mapped
As to B5, in [18], the equilibrium dissociation constant (Kd) was 1.2 nM.

B6: 15-mer B-RAF peptide (peptide)
chain: GQRDRSSSAPNVHIN
modifications: also: phosphoserine at S365, site in chain not given here
For B6, the Kd in [3] came out at 25 nM; in experiment [4] it was 245 nM; in experiment [19], 2240 nM; in [5] it was 14 nM; in experiment [6], 70 nM; in experiment [7], 55 nM. In addition, the Kd in [8] was determined as 60 nM; in experiment [9], 220 nM; in experiment [10], 94 nM; in [11], 95 nM.

B7: acetylated 12-mer A-RAF peptide (peptide)
chain: IRSTSTPNVHMV
modifications: not fully specified (residue 5, N-terminus); also: phosphoserine at 214, position in chain not mapped
On to B7, for which the dissociation constant (Kd) was determined as 1.7 nM in experiment [18] and 2000 nM in experiment [20].
